We go through 1 molecule from publication PMC9569855 (2022).

This assay addresses SARS-CoV-2 wild type RBD (319-541aa) (SARS-CoV-2, UniProt P0DTC2 319-541). As to the kind of experiment: SPR.

B1: Bamlanivimab (antibody, V domains shown)
VH: QVQLVQSGAEVKKPGSSVKVSCKASGGTFSNYAISWVRQAPGQGLEWMGRIIPILGIANYAQKFQGRVTITADKSTSTAYMELSSLRSEDTAVYYCARGYYEARHYYYYYAMDVWGQGTAVTVSS
VL: not shown
By koff is commonly meant the first-order rate constant of dissociation. In the case of B1, the koff was determined as 0.0014 s⁻¹.
